B1: 7G7/κ (antibody, V domains shown)
VH: QVQLVESGGGVVQPGRSLRLSCIASGFTFRNYAMYWVRQAPGKGLEWVAVIWYDGSNKFYTDSVKGRFTISRDNSKNSLYLQMNSLRAEDTAVYFCARDQGFGDNYYYYGMDVWGQGTTVTVSS
VL: SYELTQPPSVSVSPGQTARISCSGDALPKEYAYWYQQKPGQAPVLVIYKDSERPSGIPERFSGSSSGTTVTLTISGVQAEDEADYYCQLADSSMHYVVFGGGTKLTVL
notes: also called 7G7-IgG1κ; 7G7/κ (IgG1/Igκ); source: Expi293F, cotransfected with IgH and IgL vectors, purified (HiTrap Protein G)
B2: 7G7/λ (antibody, V domains shown)
VH: B1 VH
VL: B1 VL
notes: also called 7G7 (7G7/λ); IgG1/Igλ2; source: Expi293F, cotransfected with IgH and IgL vectors, purified (HiTrap Protein G)
B3: NIBIC-71 (antibody, V domains shown)
VH: EVQLVESGGGLIQPGGSLRLSCEASGLIVSSNYMTWVRQAPGKGLEWVSVIYSGGSTFYADSVKGRFTVSRDNSKNTLYLQMNNLSPEDTAVYYCARDLGPYGVDVWGQGTTVTVSS
VL: AIQLTQSPSSLSASVGDRVTITCRASQGISSYLAWYQQTPGKAPKLLIYAASTLQSGVPSRFSGSGSGTDFTLTISSLQPEDFATYYCQQLNSYPPFTFGPGTKVDIK
notes: also called recombinant mAb NIBIC-71

Key:
Settings in all cases: both partners purified
[1] = target: T1, recombinant S ECD protein (aa 13–1208) of SARS-CoV-2 (SARS-CoV-2, UniProt P0DTC2); assay: ELISA
T1 construct: also called S protein; extracellular domain of the S protein

[2] = target: NTD + RBD (aa 13–541) of the SARS-CoV-2 S protein (SARS-CoV-2, wild type (Wuhan-Hu-1 …, UniProt P0DTC2)); assay: ELISA
[3] = target: T2, S1 (aa 13–685) of the SARS-CoV-2 S protein (SARS-CoV-2, wild type (Wuhan-Hu-1 …, UniProt P0DTC2)); assay: ELISA
T2 construct: also called subunit 1

[4] = target: T3, SARS-CoV-2 S protein (ECD, His and Flag Tag) (GenScript) (SARS-CoV-2, wild type (Wuhan-Hu-1 …, UniProt P0DTC2)); assay: SPR
T3 construct: source: bought: GenScript

Row | Binder | binding result [1] | binding result [2] | binding result [3] | Kd [4] | koff [4] | kon [4]
1 | B1 | binds | binds | binds | – | – | –
2 | B2 | binds | – | – | – | – | –
3 | B3 | – | – | – | 1.33 nM | 6.35e-05 s⁻¹ | 47700 M⁻¹ s⁻¹

Source: paper PMC9684487, “Human antibody recognition and neutralization mode on the NTD and RBD domains of SARS-CoV-2 spike protein” (Scientific Reports, 2022)
